In the supplement of paper PMC7125110:
± gives the standard error. For some assays here: Variants at the floor of the assay were thinned out.

B1: glmS ribozyme (parent)
chain: AUAAAAGCGCCAGAACUACAGAAAUGUAGUUGACGAGGAGGAGGUUUAUCGAAUUUUCGGCGGAUGCCUCCAAA

How the values were obtained:
Conditions in all cases: with glucosamine-6-phosphate
glucosamine-6-phosphate [1] = variants of: B1; experiment: kcat; higher = faster cleavage; RNA array
Summary of the method: (§1)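 A hybridised Cy3 probe tracked barcoded ribozyme variants, transcribed in situ by E. coli RNA polymerase on sequenced MiSeq chips, at 37 °C. The variants received 40 μM to 10 mM glucosamine-6-phosphate in HEPES/KCl/Mg(OAc)2 buffer. kobs came from decay fits and kcat and KM from weighted Michaelis–Menten fits.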

glucosamine-6-phosphate [2] = variants of: B1; experiment: KM; higher = weaker cofactor use; RNA array
Summary of the method: as §1

glucosamine-6-phosphate [3] = variants of: B1; experiment: self-cleavage kobs at 40 uM GlcN6P; higher = faster cleavage; RNA array
Summary of the method: as §1

glucosamine-6-phosphate [4] = variants of: B1; experiment: self-cleavage kobs at 160 uM GlcN6P; higher = faster cleavage; RNA array
Summary of the method: as §1

glucosamine-6-phosphate [5] = variants of: B1; experiment: self-cleavage kobs at 640 uM GlcN6P; higher = faster cleavage; RNA array
Summary of the method: as §1

glucosamine-6-phosphate [6] = variants of: B1; experiment: self-cleavage kobs at 2500 uM GlcN6P; higher = faster cleavage; RNA array
Summary of the method: as §1

glucosamine-6-phosphate [7] = variants of: B1; experiment: self-cleavage kobs at 10000 uM GlcN6P; higher = faster cleavage; RNA array
Summary of the method: as §1

AUAAAAGCGCCAGAACUACAGAAAUGUAGUUGACGAGGAGGAGGUUUAUCAAAUUUUCGGCGGAUGCCUUCAAA [G51A C70U] gave a kcat (glucosamine-6-phosphate [1]) of 1.48e-05 ± 3.4e-06 s⁻¹.

For AUAAAAGCGCCAGAACUACAGAAAUGUAGGUGACGAGGCGGAGGUUUAUCGAAUUUUCGGCGGAUGCCUCCAAA [U30G A39C], the kcat (glucosamine-6-phosphate [1]) was 0.00157 ± 0.00013 s⁻¹, the KM (glucosamine-6-phosphate [2]) was 2010 ± 270 µM and the “self-cleavage kobs at 40 uM GlcN6P” value (glucosamine-6-phosphate [3]) was 3.28e-05 ± 5.7e-06 s⁻¹. For the same variant, the “self-cleavage kobs at 160 uM GlcN6P” value (glucosamine-6-phosphate [4]) was 0.000114 ± 1.6e-05 s⁻¹, the “self-cleavage kobs at 640 uM GlcN6P” value (glucosamine-6-phosphate [5]) was 0.000396 ± 3.6e-05 s⁻¹ and the “self-cleavage kobs at 2500 uM GlcN6P” value (glucosamine-6-phosphate [6]) was 0.000787 ± 7.3e-05 s⁻¹. The “self-cleavage kobs at 10000 uM GlcN6P” value (glucosamine-6-phosphate [7]) was 0.00139 ± 0.00011 s⁻¹.

AUAAAAGCGCCAGAACUACAGAAAUGUAGUUGAGGAGGAGGAGGUUUAUCGAAUUGUCGGCGGAUGCCUUCAAA [C34G U56G C70U] was tested, and the kcat (glucosamine-6-phosphate [1]) was 3.47e-05 ± 8.1e-06 s⁻¹, the “self-cleavage kobs at 640 uM GlcN6P” value (glucosamine-6-phosphate [5]) was 3.21e-05 ± 1.5e-05 s⁻¹ and the “self-cleavage kobs at 2500 uM GlcN6P” value (glucosamine-6-phosphate [6]) was 4.52e-05 ± 2.2e-05 s⁻¹.

In the case of AUAAAAGCGCCAGAACUACAGAAAUGUAGUUGACGAGGGGGAGGUUUAUCGAAUUUUCGGCGGAUGCCUCCAAA [A39G], the kcat (glucosamine-6-phosphate [1]) is reported as 0.0923 ± 0.019 s⁻¹, the KM (glucosamine-6-phosphate [2]) is reported as 2540 ± 580 µM and the “self-cleavage kobs at 40 uM GlcN6P” value (glucosamine-6-phosphate [3]) is reported as 0.00154 ± 3.7e-05 s⁻¹. The “self-cleavage kobs at 160 uM GlcN6P” value (glucosamine-6-phosphate [4]) was 0.00433 ± 0.00024 s⁻¹, the “self-cleavage kobs at 640 uM GlcN6P” value (glucosamine-6-phosphate [5]) was 0.0174 ± 0.0013 s⁻¹ and the “self-cleavage kobs at 2500 uM GlcN6P” value (glucosamine-6-phosphate [6]) was 0.0472 ± 0.0047 s⁻¹. For the same variant, the “self-cleavage kobs at 10000 uM GlcN6P” value (glucosamine-6-phosphate [7]) was 0.075 ± 0.0037 s⁻¹.

With AUAAAAGCGCCAUAACUACAGAAAUGUAGUUGACGAGGAGGAGGUUUAUCGAAUUAUCGGCGGAUGUCUCCAAA [G13U U56A C67U] the kcat (glucosamine-6-phosphate [1]) was 0.000254 ± 9.5e-05 s⁻¹, the “self-cleavage kobs at 2500 uM GlcN6P” value (glucosamine-6-phosphate [6]) was 0.000115 ± 3.1e-05 s⁻¹ and the “self-cleavage kobs at 10000 uM GlcN6P” value (glucosamine-6-phosphate [7]) was 0.000167 ± 3.2e-05 s⁻¹.

With AUAAAAGCGUCAGAACUACAGAAAUGUAGUUGACGAGGAGGAGGUUUAUCGUAUUUUCGGCGGAUGCGUCCAAA [C10U A52U C68G] the kcat (glucosamine-6-phosphate [1]) was 0.000101 ± 4.6e-05 s⁻¹ and the “self-cleavage kobs at 2500 uM GlcN6P” value (glucosamine-6-phosphate [6]) was 6.27e-05 ± 2.5e-05 s⁻¹.

With AUAAAAGCGCCAGAACUACAGAAAUGUAGUGGACGAGGAGGAGGUUUAUCGAAUUUUCAGCGGAUGCCUCCAAA [U31G G59A] the kcat (glucosamine-6-phosphate [1]) was 0.000131 ± 8.6e-06 s⁻¹, the “self-cleavage kobs at 40 uM GlcN6P” value (glucosamine-6-phosphate [3]) was under 1e-05 s⁻¹ and the “self-cleavage kobs at 10000 uM GlcN6P” value (glucosamine-6-phosphate [7]) was 4.18e-05 ± 1.3e-05 s⁻¹.

AUAAAAGCGCCAGGACUACAGAAAUGUAGUUGACGAGGAGGUGGUUUAUCGAAUUUUCGGCGGAUGCCUCCAAA [A14G A42U] was tested, and the kcat (glucosamine-6-phosphate [1]) was 0.000931 ± 0.00011 s⁻¹, the KM (glucosamine-6-phosphate [2]) was 3180 ± 600 µM and the “self-cleavage kobs at 160 uM GlcN6P” value (glucosamine-6-phosphate [4]) was 5.25e-05 ± 1.1e-05 s⁻¹. For the same variant, the “self-cleavage kobs at 640 uM GlcN6P” value (glucosamine-6-phosphate [5]) was 0.000152 ± 2.5e-05 s⁻¹, the “self-cleavage kobs at 2500 uM GlcN6P” value (glucosamine-6-phosphate [6]) was 0.000357 ± 7e-05 s⁻¹ and the “self-cleavage kobs at 10000 uM GlcN6P” value (glucosamine-6-phosphate [7]) was 0.000738 ± 9.3e-05 s⁻¹.

AUAAAAGCGCCAGAACUACAGAAAUGUAGUUGACGAGGAGGAGGUUUAUCGAAUUUACGGCGGAUGGCUCCAAA [U57A C67G] was tested, and the kcat (glucosamine-6-phosphate [1]) was 5.87e-05 ± 1.1e-05 s⁻¹, the “self-cleavage kobs at 640 uM GlcN6P” value (glucosamine-6-phosphate [5]) was 5.39e-05 ± 1.5e-05 s⁻¹ and the “self-cleavage kobs at 2500 uM GlcN6P” value (glucosamine-6-phosphate [6]) was 3.77e-05 ± 1.1e-05 s⁻¹. The “self-cleavage kobs at 10000 uM GlcN6P” value (glucosamine-6-phosphate [7]) was 7.6e-05 ± 1.1e-05 s⁻¹.

With AUAAAAGCGCCUGAACUACAGAAAUGUAGUGGACGAGGAGGAGGUUCAUCGAAUUUUCGGCGGAUGCCUCCAAA [A12U U31G U47C] the kcat (glucosamine-6-phosphate [1]) was 0.000915 ± 0.00036 s⁻¹, the “self-cleavage kobs at 640 uM GlcN6P” value (glucosamine-6-phosphate [5]) was 0.000923 ± 0.00024 s⁻¹ and the “self-cleavage kobs at 2500 uM GlcN6P” value (glucosamine-6-phosphate [6]) was 0.00136 ± 0.00036 s⁻¹. For the same variant, the “self-cleavage kobs at 10000 uM GlcN6P” value (glucosamine-6-phosphate [7]) was 0.000748 ± 0.00013 s⁻¹.

With AUAAAAGCGCCAGAACUACAGAAAUGUAGUUGACGAGGAUGAGGUUUAUCGUAUUUUCGGCGGAUGCCUCCAAA [G40U A52U] the kcat (glucosamine-6-phosphate [1]) was 0.000102 ± 6.2e-06 s⁻¹, the KM (glucosamine-6-phosphate [2]) was 2510 ± 550 µM and the “self-cleavage kobs at 2500 uM GlcN6P” value (glucosamine-6-phosphate [6]) was 4.82e-05 ± 9.8e-06 s⁻¹. The “self-cleavage kobs at 10000 uM GlcN6P” value (glucosamine-6-phosphate [7]) was 8.17e-05 ± 6.8e-06 s⁻¹.

For AUAAAAGCGCCAGAACUACAGAAAUGUAGUUGACGAGGGGGAGGUUUAUCGGAUUUUCGGCGGAUGCCUCCAAA [A39G A52G], the kcat (glucosamine-6-phosphate [1]) was 0.00286 ± 0.00015 s⁻¹, the KM (glucosamine-6-phosphate [2]) was 3960 ± 330 µM and the “self-cleavage kobs at 160 uM GlcN6P” value (glucosamine-6-phosphate [4]) was 0.000117 ± 3.5e-05 s⁻¹. The “self-cleavage kobs at 640 uM GlcN6P” value (glucosamine-6-phosphate [5]) was 0.000407 ± 8.1e-05 s⁻¹, the “self-cleavage kobs at 2500 uM GlcN6P” value (glucosamine-6-phosphate [6]) was 0.00108 ± 0.0003 s⁻¹ and the “self-cleavage kobs at 10000 uM GlcN6P” value (glucosamine-6-phosphate [7]) was 0.00205 ± 0.00028 s⁻¹.

With AUAAACGCGCCAGAACUACAGAAAUGUAGUUGACGAGGAGGAGGUUUAUCGAAUUUUCGGCGGAUGCCCCCAAA [A6C U69C] the kcat (glucosamine-6-phosphate [1]) was 3.1e-05 ± 9.9e-06 s⁻¹, the “self-cleavage kobs at 40 uM GlcN6P” value (glucosamine-6-phosphate [3]) was under 1e-05 s⁻¹ and the “self-cleavage kobs at 2500 uM GlcN6P” value (glucosamine-6-phosphate [6]) was 4.93e-05 ± 2e-05 s⁻¹.

For AUAAAAGCGCCAGAACUACAGAAAUGUAGUUGACGAGGAUGAGGUUUAUCGAAUCUUCGGCGGAUGCCUCCAAA [G40U U55C], the kcat (glucosamine-6-phosphate [1]) was 0.000228 ± 3.6e-06 s⁻¹, the KM (glucosamine-6-phosphate [2]) was 6810 ± 240 µM and the “self-cleavage kobs at 10000 uM GlcN6P” value (glucosamine-6-phosphate [7]) was 0.000135 ± 1.7e-05 s⁻¹.

AUAAAAGCGCCUGAACUACAGAAAUGUAGUUGACGAGGAGCAGGUUUAUCGAAUUUUCGGCGGAUGCCUCCAAA [A12U G41C] was tested, and the kcat (glucosamine-6-phosphate [1]) was 0.000373 ± 8.7e-05 s⁻¹, the KM (glucosamine-6-phosphate [2]) was 1830 ± 770 µM and the “self-cleavage kobs at 160 uM GlcN6P” value (glucosamine-6-phosphate [4]) was 2.68e-05 ± 1.1e-05 s⁻¹. The “self-cleavage kobs at 640 uM GlcN6P” value (glucosamine-6-phosphate [5]) was 0.000108 ± 1.2e-05 s⁻¹, the “self-cleavage kobs at 2500 uM GlcN6P” value (glucosamine-6-phosphate [6]) was 0.000168 ± 2.7e-05 s⁻¹ and the “self-cleavage kobs at 10000 uM GlcN6P” value (glucosamine-6-phosphate [7]) was 0.000373 ± 5e-05 s⁻¹.

For AUAAAAGCACCAGAACUACAGAAAUGUAGUUGACGAGGAGGAGGUUUAUCGAAUUUUCGGCGGAUGACUCCAAA [G9A C67A], the kcat (glucosamine-6-phosphate [1]) was under 1e-05 s⁻¹, the “self-cleavage kobs at 40 uM GlcN6P” value (glucosamine-6-phosphate [3]) was under 1e-05 s⁻¹ and the “self-cleavage kobs at 160 uM GlcN6P” value (glucosamine-6-phosphate [4]) was under 1e-05 s⁻¹.

In the case of AUAAAAGCGCCAGAACUACAGAAAUGUAGUUGACGAGGAGGAGGUUUUUCGGAUUUUCGGCGGAUGCCUCCAAA [A48U A52G], the kcat (glucosamine-6-phosphate [1]) is reported as 1.32e-05 ± 2.9e-06 s⁻¹.

With AUAAAAGCGCCAGAACUACAGAAAUGUAGUUGACGAGGAGGAGGUUUAUCGAAUUUUCGGCGUAUGCCGCCAAA [G63U U69G] the kcat (glucosamine-6-phosphate [1]) was 2.86e-05 ± 7.3e-06 s⁻¹, the “self-cleavage kobs at 160 uM GlcN6P” value (glucosamine-6-phosphate [4]) was 3.51e-05 ± 1.5e-05 s⁻¹ and the “self-cleavage kobs at 640 uM GlcN6P” value (glucosamine-6-phosphate [5]) was 3.96e-05 ± 1.5e-05 s⁻¹.

In the case of AUAAAAGCGCCAGAACUACAGAAAUGUAGUUCACGAGGAGGAGGGUUAUCGAAUUUUCGGCGGAUGCCUCCAAA [G32C U45G], the kcat (glucosamine-6-phosphate [1]) is reported as 2.74e-05 ± 2.5e-06 s⁻¹, the KM (glucosamine-6-phosphate [2]) is reported as 2960 ± 1000 µM and the “self-cleavage kobs at 40 uM GlcN6P” value (glucosamine-6-phosphate [3]) is reported as under 1e-05 s⁻¹. The “self-cleavage kobs at 160 uM GlcN6P” value (glucosamine-6-phosphate [4]) was under 1e-05 s⁻¹.

With AUAAAAGCGCCAGAACUACAGAAAUGUACUUGACGAGGAGGAGGUUUAUCGAAUUUUCGGCGGAUGCCUCAAAA [G29C C71A] the kcat (glucosamine-6-phosphate [1]) was 0.000154 ± 3.1e-05 s⁻¹, the “self-cleavage kobs at 640 uM GlcN6P” value (glucosamine-6-phosphate [5]) was 0.000104 ± 1.9e-05 s⁻¹ and the “self-cleavage kobs at 2500 uM GlcN6P” value (glucosamine-6-phosphate [6]) was 0.000119 ± 2.7e-05 s⁻¹. For the same variant, the “self-cleavage kobs at 10000 uM GlcN6P” value (glucosamine-6-phosphate [7]) was 0.000253 ± 7.8e-05 s⁻¹.
